Measurements published in PMC11077057, “Identifying human pre-mRNA cleavage and polyadenylation factors by genome-wide CRISPR screens using a dual fluorescence readthrough reporter”.

T1: RPRD1B full length (human, UniProt Q9NQG5 2-326)
T1 sequence: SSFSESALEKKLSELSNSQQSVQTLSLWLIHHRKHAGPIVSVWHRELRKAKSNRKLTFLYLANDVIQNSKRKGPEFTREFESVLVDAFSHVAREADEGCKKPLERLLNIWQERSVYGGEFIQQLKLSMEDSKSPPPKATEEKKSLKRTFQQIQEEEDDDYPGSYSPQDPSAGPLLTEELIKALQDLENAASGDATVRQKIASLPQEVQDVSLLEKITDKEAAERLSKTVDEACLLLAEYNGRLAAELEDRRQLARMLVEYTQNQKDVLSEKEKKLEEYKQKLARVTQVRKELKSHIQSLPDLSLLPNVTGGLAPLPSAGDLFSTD

T2: RPRD1B coiled-coil domain (human, UniProt Q9NQG5 171-304)
T2 sequence: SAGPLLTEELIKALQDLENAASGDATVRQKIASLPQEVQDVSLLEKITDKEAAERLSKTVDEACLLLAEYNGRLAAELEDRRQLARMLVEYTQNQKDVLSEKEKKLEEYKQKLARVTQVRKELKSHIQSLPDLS

T3: RPRD1B CID (human, UniProt Q9NQG5 2-135)
T3 sequence: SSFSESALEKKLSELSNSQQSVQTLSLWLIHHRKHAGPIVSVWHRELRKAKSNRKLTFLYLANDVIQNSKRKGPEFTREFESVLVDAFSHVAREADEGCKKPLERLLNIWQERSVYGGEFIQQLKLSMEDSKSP


Key:
Experiment in all cases: EMSA; 0-1 ug protein; heparin 200 ug/ml added after binding; EMSA: 40 mM Tris pH 8.0, 30 mM KCl, 1 mM MgCl2, 0.01% NP-40, 1 mM DTT, 100 ng/ml yeast tRNA, 20 ul, 30 C 30-60 min, then on ice with heparin 200 ug/ml; 4-6% native PAGE 0.5x TBE, cold room
[1] = target: T1, RPRD1B full length; settings: protein: recombinant; (pET28GST-LIC; 6xHis stated); chain copies: 2
[2] = target: T2, RPRD1B coiled-coil domain; settings: protein: recombinant; (pET28GST-LIC; 6xHis stated); chain copies: 2
[3] = target: T3, RPRD1B CID; settings: protein: recombinant; (pET28GST-LIC; 6xHis stated)

Binder | binding result [1] | binding result [2] | binding result [3]
GEMIN7 exon 2 probe (ssRNA) RNA: GCGGCUUCUCUGUUGACAACUCAGCUGGUUCCACACCCUGGCAAUUGUGAAGAGUUGGCCAAAUGUUUGUCCACUGAGCUGAUCUCCUCUCUGGAGCACC | no binding |  | 
GEMIN7 3' UTR probe (ssRNA) RNA: AUUUGAUUUCAUUUUGGGGCGGGCGGUGGCUCGUGCUGGGUCACGUGGUCGUGCCAAGCGCUCCUCCUGUUGCCCCACCUGUGGUUGCUGUGGACUGCAC | binds | no binding | binds
